From patent publication US20040023313A1 (Amgen, published 2004)

T1: OPGL used in the RAW 264.7 osteoclast formation assay (Example 6) (human, UniProt O14788 143-317, limits assumed)
T1 sequence (looked up): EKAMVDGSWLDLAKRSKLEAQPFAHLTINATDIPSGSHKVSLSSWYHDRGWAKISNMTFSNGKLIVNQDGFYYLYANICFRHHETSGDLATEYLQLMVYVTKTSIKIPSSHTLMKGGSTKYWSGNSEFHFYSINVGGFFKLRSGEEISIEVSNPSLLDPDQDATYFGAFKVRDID

T2: E. coli mouse OPGL (mOPGL) 158 (mouse, UniProt O35235 158-316)
T2 construct: kept apart
T2 sequence (looked up): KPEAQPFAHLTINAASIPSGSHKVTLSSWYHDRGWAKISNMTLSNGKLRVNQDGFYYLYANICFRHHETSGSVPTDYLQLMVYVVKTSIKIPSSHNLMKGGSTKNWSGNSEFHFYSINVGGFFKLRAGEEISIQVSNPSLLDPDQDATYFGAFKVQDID

T3: Murine OPGL [158-316] (murine, UniProt O35235 158-316)
T3 sequence: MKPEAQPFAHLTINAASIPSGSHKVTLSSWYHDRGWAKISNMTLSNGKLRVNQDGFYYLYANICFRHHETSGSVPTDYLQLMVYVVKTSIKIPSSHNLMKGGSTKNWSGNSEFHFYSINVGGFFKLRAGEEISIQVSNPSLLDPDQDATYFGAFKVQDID

T4: CHO human OPGL (hOPGL) 140 (human, UniProt O14788 140-317)
T4 construct: also called CHO hOPGL 140
T4 sequence (looked up): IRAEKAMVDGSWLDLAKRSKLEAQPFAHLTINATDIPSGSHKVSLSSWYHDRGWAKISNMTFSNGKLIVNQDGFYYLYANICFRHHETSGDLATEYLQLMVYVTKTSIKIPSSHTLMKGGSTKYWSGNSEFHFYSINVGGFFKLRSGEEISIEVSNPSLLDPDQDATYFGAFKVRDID


Experiments:
[1] = target: T1, OPGL used in the RAW 264.7 osteoclast …; assay: cell-based or functional assay
[2] = target: T2, E. coli mouse OPGL (mOPGL) 158; assay: SPR (BIAcore 2000), antibody captured on Protein G, mOPGL 158 in solution
Protocol: (§1) All experiments were performed on a BlAcore 2000 according to the manufacturer's instructions, with the following modifications. Experiments were performed at room temperature using a running buffer containing 10 mM Hepes (pH 7.4), 0.15M NaCl, 3 mM EDTA, and 0.005% Tween 20. Protein G at 50 μg/mL in 10 mM acetate pH 4.5 was immobilized to a level of 1,600 response units (RU) onto a CM5 Research grade sensor chip (BlAcore, Inc.). Antibodies (8-20 μg/mL) were captured onto the Protein G chip at a level of 300-400 RUs. […] Langmuir 1:1 model was used to determine binding kinetics. Protein G immobilized to 1600 RUs was used as a blank surface. A mouse monoclonal antibody was used as a positive control to show binding to hOPGL 140 and to monitor surface stability.

Murine OPGL [158-316] = target: T3, Murine OPGL [158-316]; assay: ELISA: plate coated with murine OPGL[158-316] at 3 µg/mL, antibody titrated 1.95-2000 ng/ml, goat anti-human IgG (Fc) detection, ABTS, OD405
Protocol: (§2) After overnight incubation, the protein solutions were removed from the plate and 200 μL of 5% Chicken Serum (Gibco/BRL Cat# 16110-082) in PBST (PBS plus 0.05% Tween 20) was added to each well of the plate and plates were incubated at room temperature (RT) for 3 hours with agitation. After incubation and blocking, plates were washed 4 times with 1× K-P wash solution in dH₂O (Cat# 50-63-00, Kirkegaard & Perry Laboratories) and dried. […] Plates were incubated for 2.25 hours at room temperature with agitation, washed four times with 1× K-P wash solution and dried. Goat anti-human IgG (Fc) (Jackson ImmunoResearch, Cat# 109-036-098) was diluted 1:3000 in 5% Chicken Serum in PBST and 100 μL was added to each well. […] 100 μL of undiluted ABTS substrate (Kirkegaard & Perry; Cat# 50-66-00) was added to each well and the dish was incubated at room temperature until sufficient blue-green color developed. Color development was stopped by addition of 100 μL 1% SDS. Quantitation of color development was performed using a microtiter plate reader with detection at 405 nm.

[3] = target: T4, CHO human OPGL (hOPGL) 140; assay: SPR (BIAcore 2000), antibody captured on Protein G, hOPGL 140 in solution 0.25-62 nM, Langmuir 1:1
Protocol: as §1

[4] = target: T5, FLAG-murine OPGL [158-316]/DE (murine, UniProt O35235 158-316); assay: ELISA: plate coated with FLAG-murine OPGL[158-316]/DE at 3 µg/mL, antibody titrated 1.95-2000 ng/ml, goat anti-human IgG (Fc) detection, ABTS, OD405
T5 construct: The same paragraph also prints the changes as S231D, V232L, P233A and D235E (T234 unchanged), a numbering two higher than the 229-233 it gives first
Protocol: as §2

Row | Binder | IC50 (ng/mL), inhibition of OPGL-driven osteoclast formation of RAW 264.7 cells (TRAP activity, OD 405 nM) [1] [ng/mL] | binding result [2] | binding result (Murine OPGL [158-316]) | koff [3] [s⁻¹] | kon [3] [M⁻¹ s⁻¹] | off rate half life t½ [3] [h] | EC50 (read off the curve) [4] [µg/mL] | binding result [4]
1 | 9H7 anti-OPGL antibody (antibody, V domains shown, Fully human IgG1 kappa from HuMab mice; also called 9H7 anti-OPGL MAb) VH: EVQLVQSGGGLVHPGGSLRLSCEGSGFTFSSNGMHWVRQTPGKGLEWVSGIGTAGGTYYADSVKGRFTISRDNVKKSLYLQMNSLRAEDMAIYYCVRKDWGWFDPWGQGALVTVSS VL: EIVLTQSPATLSLSPGERATLSCRASQSISSYLAWYQQKPGQAPRLLIYDASNRATGIPARFSGSGSGTDFTLTISSLEPEDFAVYYCQQRSKWPPYTFGQGTKLEIKR | 129 | no binding (tested: 0.25-62 nM) | no binding (tested: 2000 ng/ml) |  |  |  |  | 
2 | 2D8 anti-OPGL antibody (antibody, V domains shown, Fully human IgG1 kappa from HuMab mice) VH: EVQLVQSGGGLVHPGGSLRLSCAGSGFTFSSYGMHWVRQAPGKGLEWVSGIGTGGGTYYADSVKGRFTISRDNVKNSLYLQMNSLRAEDMAVYYCARKNWGWFDYWGQGTLVTVSS VL: EIVLTQSPATLSLSPGERATLSCRASQSISSYLAWYQQKPGQAPRLLIYDASNRATGIPARFSGSGSGTDFTLTISSLEPEDFAVYYCQQRSKWPPYTFGQGTKLEIKR | 611 | no binding (tested: 0.25-62 nM) | no binding (tested: 2000 ng/ml) |  |  |  |  | 
3 | 22B3 anti-OPGL antibody (antibody, human IgG1, kappa, V domains shown, Fully human IgG1 kappa from HuMab mice) VH: EVQLVQSGGGLVHPGGSLRLSCEGSGFTFSSNGMHWVRQTPGKGLEWVSGIGTAGGTYYADSVKGRFTISRDNVKKSLYLQMNSLRAEDMAIYYCVRKNWGWFDPWGQGALVTVSS VL: EIVLTQSPATLSLSPGERATLSCRASQSVNSYLAWFQQKPGQAPRLLIYDASNRATGIPARFSGSGSGTDFTLTISSLEPEDFAIYYCQQRSNWPPFTFGQGTKLEIKR | 146 |  |  | 6.39e-05 | 1.9e+06 | 3.01 | ~0.009 | 
4 | 18B2 anti-OPGL antibody (antibody, V domains shown, Fully human IgG1 kappa from HuMab mice) VH: EVQLVQSGGGLVHPGGSLRLSCVGSRFTFSAYPMHWVRQAPGKGLEWVSGIGSGGGTNYADSVKGRFTISRDTAKNSLYLQMNSLRAEDMAVYYCARGRNSFDYWGQGTLVTVSS VL: DIQMTQSPSSLSASVGDRVTITCRASQGISTWLAWYQQKPEKAPKSLIYAASSLQSGVPSRFSGSGSGTDFTLTISSLQPEDFATYYCQQYNSYPPTFGQGTKVEIKR | 80 | no binding (tested: 0.25-62 nM) | no binding (tested: 2000 ng/ml) | 0.000186 | 878000 | 1.03 |  | 
5 | 2E11 anti-OPGL antibody (antibody, V domains shown, Fully human IgG1 kappa from HuMab mice; also called 2 µl 1) VH: EVQLVQSGGDLVHPGGSLRLSCVGSGFTFSHYPLHWVRQAPGKGLEWISGIHTGGGTYYTDSVKGRFTISSDNAKNSLYLQMNTLRAEDMAVYYCARGRNSFDYWGQGTLVIVSS VL: DIQMTQSPSSLSASVGDRVTITCRASQGISSWLAWYQQKPEKAPKSLIYAASSLQSGVPSRFSGSGSGTDFTLTISSLQSEDFATYYCQQYNSYPPTFGQGTRLEIKR | 77 | no binding (tested: 0.25-62 nM) | no binding (tested: 2000 ng/ml) | 0.000132 | 453000 | 1.46 |  | no binding (tested: 2000 ng/ml)
6 | 16E1 anti-OPGL antibody (antibody, V domains shown, Fully human IgG1 kappa from HuMab mice) VH: EVQLVQSGGGLVHPGGSLRLSCAGSGFTFSGHALHWVRQAPGKGLEWVSGIGTHGGTYYADSVKGRFTISRDNAKNSLFLQMNSLSAEDMAVYYCTRRNWGQFDYWGQGTLVTVSS VL: EIVLTQSPATLSLSPGERATLSCRASQSVSSYLAWYQQKPGQAPRLLIYDASNRATGIPARFSGSGSGTDFTLTISSLEPEDFAVYYCQQRSNWPPYTFGQGTKLEIKR | 352 | no binding (tested: 0.25-62 nM) | no binding (tested: 2000 ng/ml) | 0.000137 | 2.16e+06 | 1.41 | ~0.01 | 
